Laboratory results from patent US20140004107A1.

Target: human ST2 on human primary cells (human) (UniProt Q01638)
Assay: cell-based or functional assay

Chain of human ST2 on human primary cells (human) (Q01638 19-556 A78X): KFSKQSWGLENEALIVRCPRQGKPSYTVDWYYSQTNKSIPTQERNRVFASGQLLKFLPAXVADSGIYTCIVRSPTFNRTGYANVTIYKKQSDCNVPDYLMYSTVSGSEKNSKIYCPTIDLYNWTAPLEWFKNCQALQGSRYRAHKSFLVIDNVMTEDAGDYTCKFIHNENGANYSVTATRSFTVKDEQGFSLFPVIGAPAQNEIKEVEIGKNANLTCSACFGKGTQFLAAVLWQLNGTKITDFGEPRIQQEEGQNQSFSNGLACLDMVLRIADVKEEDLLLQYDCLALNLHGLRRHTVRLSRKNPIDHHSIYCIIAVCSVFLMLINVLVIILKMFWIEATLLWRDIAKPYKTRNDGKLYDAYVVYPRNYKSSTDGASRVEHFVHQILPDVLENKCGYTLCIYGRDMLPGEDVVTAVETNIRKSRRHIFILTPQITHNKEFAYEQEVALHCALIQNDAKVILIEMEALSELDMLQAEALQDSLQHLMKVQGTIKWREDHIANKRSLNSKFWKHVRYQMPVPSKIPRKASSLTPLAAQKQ

IC50 of inhibition of IL-33-dependent IFN-γ response of human NK cells (IL-33 10 ng/mL plus IL-12): 0.385 µg/mL
Substance: 97203 (antibody)
